What was measured:
[1] = target: CD20 (UniProt P11836); assay: cell-based or functional assay
[2] = target: CD19 (UniProt P15391); assay: cell-based or functional assay
Sequence of UniProt P15391 (P15391 20-556 limits assumed): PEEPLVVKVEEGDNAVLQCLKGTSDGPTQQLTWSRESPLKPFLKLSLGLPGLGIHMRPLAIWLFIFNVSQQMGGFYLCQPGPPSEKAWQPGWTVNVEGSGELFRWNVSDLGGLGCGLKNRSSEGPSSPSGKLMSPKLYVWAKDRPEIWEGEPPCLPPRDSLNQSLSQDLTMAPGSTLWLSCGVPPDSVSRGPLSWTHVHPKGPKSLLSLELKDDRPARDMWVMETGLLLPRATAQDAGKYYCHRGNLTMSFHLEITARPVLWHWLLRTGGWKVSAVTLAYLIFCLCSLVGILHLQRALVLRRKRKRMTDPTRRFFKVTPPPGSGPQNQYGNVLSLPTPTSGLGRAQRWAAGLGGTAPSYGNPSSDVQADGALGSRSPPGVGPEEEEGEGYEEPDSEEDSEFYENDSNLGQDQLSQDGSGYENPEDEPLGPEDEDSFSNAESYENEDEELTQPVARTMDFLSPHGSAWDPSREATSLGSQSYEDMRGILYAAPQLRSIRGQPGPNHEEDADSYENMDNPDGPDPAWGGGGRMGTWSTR

Sequence of UniProt P11836 (P11836 whole entry): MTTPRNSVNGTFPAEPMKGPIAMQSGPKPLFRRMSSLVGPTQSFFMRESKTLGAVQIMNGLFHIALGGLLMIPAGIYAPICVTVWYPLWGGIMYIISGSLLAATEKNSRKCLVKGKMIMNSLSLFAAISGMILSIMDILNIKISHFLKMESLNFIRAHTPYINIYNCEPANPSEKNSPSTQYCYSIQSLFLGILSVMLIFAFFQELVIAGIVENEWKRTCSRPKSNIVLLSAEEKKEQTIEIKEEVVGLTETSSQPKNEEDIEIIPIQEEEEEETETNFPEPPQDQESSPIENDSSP

IFNγ release; T cells transduced with monospecific 10-5-2020 Hu19-CD828Z, with CD19-negative CD20-K562 (untransduced T cells: 201.3) [1]: 291 | IFNγ release; T cells transduced with monospecific 10-5-2020 Hu19-CD828Z, with ST486 CD19-negative (untransduced T cells: 1464.3) [1]: 1360 | IFNγ release; T cells transduced with monospecific 10-5-2020 Hu19-CD828Z, with Toledo CD19-negative (untransduced T cells: 372.7) [1]: 702 | CFSE median fluorescence intensity (lower = more proliferation), FIG. 9B, CD4+ T cells with Hu1928-Hu20BB long 10-21-2020, 4 days with CD19-K562 (NGFR-K562 control 28478) (relative fluorescence units) [2]: 1410 | CFSE median fluorescence intensity (lower = more proliferation), FIG. 10B, CD8+ T cells with Hu1928-Hu20BB long 10-21-2020, 4 days with CD19-K562 (NGFR-K562 control 24978) (relative fluorescence units) [2]: 1770 | IFNγ ELISA of supernatant; T cells transduced with Hu1928-Hu20BB long 10-21-2020, overnight with CD19-K562 [2]: 8210 pg/mL | IFNγ release; T cells transduced with Hu1928-Hu20BB long 10-21-2020, with CD19-K562 [2]: 37500 | IFNγ release; T cells transduced with monospecific 10-5-2020 Hu19-CD828Z, with CD19-K562 (untransduced T cells: 217.2) [2]: 22000 | IFNγ release; T cells transduced with monospecific 10-5-2020 Hu19-CD828Z, with ST486, which expresses CD19 (weakly) and CD20 (untransduced T cells: 1674.8) [2]: 2070 | IFNγ release; T cells transduced with monospecific 10-5-2020 Hu19-CD828Z, with Toledo, which expresses CD19 and CD20 (untransduced T cells: 542.3) [2]: 3200 | IL-2 ELISA of supernatant; T cells transduced with Hu1928-Hu20BB long 10-21-2020, overnight with CD19-K562 [2]: 496 pg/mL
Substance: 10-5-2020 Hu19-CD828Z (anti-CD19 chimeric antigen receptor)

— patent US20240165153A1
